# Source: paper PMC4660060, “The molecular architecture of the Dam1 kinetochore complex is defined by cross-linking based structural modelling” (Nature Communications, 2015)
# Molecular target: the molecule itself
# Assay: TIRF microscopy, tracer residence time; GFP-tagged and unlabelled versions of the same mutant Dam1 complex mixed 1:100 to 2 nM in all (20 pM tracer), on immobilised MTs; BRB80, 0.8 mg/ml kappa-casein, 50 mM KCl, oxygen scavengers; concentrations that support oligomeric rings
Protein,fold increase of the average residence time on MTs against single molecules,binding result
"Dam1-GFP NP complex, mock-treated (Dam1p S257A, S265A, S292A, Ask1p S200A, Spc34p T199A) (complex, yeast, GFP-tagged complex, detected by its GFP; In the tracer assay 20 pM of this complex met 2 nM of the same mutant complex without GFP; also called Dam1 NP mock; Dam1 NP; source: recombinant Dam1 complex (E. coli BL21 Rosetta, purified); mock-treated with GST-Ipl1 and GST-Sli15 (554-698), distilled water in place of ATP; copies: + + + + + + + + +) chain 1: MDSASKEETLEKLDQEITVNLQKIDSNLSFCFHKITQDIIPHVATYSEICERIMDSTEWLGTMFQETGLVNLQANAAAPVGNAPVKSLVSNNVGIFPTSAEEASRQSQTDNGPNEADSAVHVNRDVHSMFNNDSIDDFHTANITSTGQILKLPDSSDEDTGSEAVPSREQTDLTGEGHGGADDEQDESTIQRQSRKRKIALLLQQQYGSSSSMVPSPIVPNKMRKQLAHEEHINNDGDNDDENSNNIESSPLKQGHHHPKGQADDNNEGPDEEESTKEVPKPGTIIHFSTNR chain 2: MMASTSNDEEKLISTTDKYFIEQRNIVLQEINETMNSILNGLNGLNISLESSIAVGREFQSVSDLWKTLYDGLESLSDEAPIDEQPTLSQSKTK chain 3: MDSIDEQIAIKRKELQSLQKITSLTDGLKIQLTELNEQIKEMGMNADSVAQLMNNWDSIINNISQASLGLLQYAEGDYEIGPWKDSKKKESEQSNETGLEAQENDKNDEDNDEDEDLVPLPETMVRIRVDGNE chain 4: MEHNLSPLQQEVLDKYKQLSLDLKALDETIKELNYSQHRQQHSQQETVSPDEILQEMRDIEVKIGLVGTLLKGSVYSLILQRKQEQESLGSNSK chain 5: MENPHEQVQANILSRIIGNVKRLNESVAILNQELVTINNRNKNLEIMGAICDNYHSSVQFNLEATNNKKPPL chain 6: MSEDKAKLGTTRSATEYRLSIGSAPTSRRSSMGESSSLMKFADQEGLTSSVGEYNENTIQQLLLPKIRELSDSIITLDSNFTRLNFIHESLADLNESLGSLLYGIMSNSWCVEFSQAPHDIQDDLIAIKQLKSLEDEKNNLVMELSNMERGIKRKKDEQGENDLAKASQNKQFNQPLFPSSQVRKYRSYDNRDKRKPSKIGNNLQVENEEDYEDDTSSEASFVLNPTNIGMSKSSQGHVTKTTRLNNNTNSKLRRKAILHTIRNAIASGADLPIENDNVVNLGDLHPNNRIALGSGAARVVNGPVTKNRNSMFSGRAERKPTESRHSVAKKTEKKINTRPPFR chain 7: MSEQSQLDDSTIDKLIPQIFNEMRSNLNNTTNKFPKSTGGGASDNISANSNSIRSFNSITTQSLLKESESLDKITAMIKNVTAALKNNLPVYVNQVHEVCKSTNSILDSWINIHSQAGYIHKLMSDQTYLKLINDRLHNENVNTNDEDGSTLHNVIALKKKEILDLRQKLENRKGEKDAAPAKPPNQGLNPRYGVQSGRRPVPSAGISNNGRVRKTHVPASKRPSGIPRVTNRWTKPTASSSRKMFR chain 8: MNANKQRQYNQLAHELRELQTNLQETTKQLDIMSKQCNENLVGQLGKVHGSWLIGSYIYYMEQMLGKTQ chain 9: MTDALEQSVLALEGTVSVLKDSVESLKCANEPSTNLASTMLQTKRVFRLVPEYDVERSKLDLIEEVEPLVRTLGDKLRKSMGRMQRELDTLQQTYELNDLRLKKNISMDDDDALNSPDMGQEYEGRDADDVVMMASSTNEELEELKKLKEKKKQLENKLEILKQK chain 10: MGESLDRCIDDINRAVDSMSTLYFKPPGIFHNAILQGASNKASIRKDITRLIKDCNHDEAYLLFKVNPEKQSVSRRDGKEGVFDYVIKRDTDMKRNRRLGRPGEKPIIHVPKEVYLNKDRLDLNNKRRRTATTSGGGLNGFIFDTDLIGSSVISNSSSGTFKALSAVFKDDPQIQRLLYALENGSVLMEEESNNQRRKAIFVEDFPTDLILKVMAEVTDLWPLTEFKQDYDQLYHNYEQLSSKLRFIKKEVLLQDDRLKTMSQYHPSSSHDVAKIIRKEKDEIRRLEMEIANLQE",> 5 fold,–
"Dam1-GFP CP complex, mock-treated (Dam1p S20A, Ask1p S200A, Spc34p T199A) (complex, yeast, GFP-tagged complex, detected by its GFP; In the tracer assay 20 pM of this complex met 2 nM of the same mutant complex without GFP; also called Dam1 CP mock; Dam1 CP; source: recombinant Dam1 complex (E. coli BL21 Rosetta, purified); mock-treated with GST-Ipl1 and GST-Sli15 (554-698), distilled water in place of ATP; copies: + + + + + + + + +) chain 1: MDSASKEETLEKLDQEITVNLQKIDSNLSFCFHKITQDIIPHVATYSEICERIMDSTEWLGTMFQETGLVNLQANAAAPVGNAPVKSLVSNNVGIFPTSAEEASRQSQTDNGPNEADSAVHVNRDVHSMFNNDSIDDFHTANITSTGQILKLPDSSDEDTGSEAVPSREQTDLTGEGHGGADDEQDESTIQRQSRKRKIALLLQQQYGSSSSMVPSPIVPNKMRKQLAHEEHINNDGDNDDENSNNIESSPLKQGHHHPKGQADDNNEGPDEEESTKEVPKPGTIIHFSTNR chain 2: MMASTSNDEEKLISTTDKYFIEQRNIVLQEINETMNSILNGLNGLNISLESSIAVGREFQSVSDLWKTLYDGLESLSDEAPIDEQPTLSQSKTK chain 3: MDSIDEQIAIKRKELQSLQKITSLTDGLKIQLTELNEQIKEMGMNADSVAQLMNNWDSIINNISQASLGLLQYAEGDYEIGPWKDSKKKESEQSNETGLEAQENDKNDEDNDEDEDLVPLPETMVRIRVDGNE chain 4: MEHNLSPLQQEVLDKYKQLSLDLKALDETIKELNYSQHRQQHSQQETVSPDEILQEMRDIEVKIGLVGTLLKGSVYSLILQRKQEQESLGSNSK chain 5: MENPHEQVQANILSRIIGNVKRLNESVAILNQELVTINNRNKNLEIMGAICDNYHSSVQFNLEATNNKKPPL chain 6: MSEDKAKLGTTRSATEYRLAIGSAPTSRRSSMGESSSLMKFADQEGLTSSVGEYNENTIQQLLLPKIRELSDSIITLDSNFTRLNFIHESLADLNESLGSLLYGIMSNSWCVEFSQAPHDIQDDLIAIKQLKSLEDEKNNLVMELSNMERGIKRKKDEQGENDLAKASQNKQFNQPLFPSSQVRKYRSYDNRDKRKPSKIGNNLQVENEEDYEDDTSSEASFVLNPTNIGMSKSSQGHVTKTTRLNNNTNSKLRRKSILHTIRNSIASGADLPIENDNVVNLGDLHPNNRISLGSGAARVVNGPVTKNRNSMFSGRAERKPTESRHSVAKKTEKKINTRPPFR chain 7: MSEQSQLDDSTIDKLIPQIFNEMRSNLNNTTNKFPKSTGGGASDNISANSNSIRSFNSITTQSLLKESESLDKITAMIKNVTAALKNNLPVYVNQVHEVCKSTNSILDSWINIHSQAGYIHKLMSDQTYLKLINDRLHNENVNTNDEDGSTLHNVIALKKKEILDLRQKLENRKGEKDAAPAKPPNQGLNPRYGVQSGRRPVPSAGISNNGRVRKTHVPASKRPSGIPRVTNRWTKPTASSSRKMFR chain 8: MNANKQRQYNQLAHELRELQTNLQETTKQLDIMSKQCNENLVGQLGKVHGSWLIGSYIYYMEQMLGKTQ chain 9: MTDALEQSVLALEGTVSVLKDSVESLKCANEPSTNLASTMLQTKRVFRLVPEYDVERSKLDLIEEVEPLVRTLGDKLRKSMGRMQRELDTLQQTYELNDLRLKKNISMDDDDALNSPDMGQEYEGRDADDVVMMASSTNEELEELKKLKEKKKQLENKLEILKQK chain 10: MGESLDRCIDDINRAVDSMSTLYFKPPGIFHNAILQGASNKASIRKDITRLIKDCNHDEAYLLFKVNPEKQSVSRRDGKEGVFDYVIKRDTDMKRNRRLGRPGEKPIIHVPKEVYLNKDRLDLNNKRRRTATTSGGGLNGFIFDTDLIGSSVISNSSSGTFKALSAVFKDDPQIQRLLYALENGSVLMEEESNNQRRKAIFVEDFPTDLILKVMAEVTDLWPLTEFKQDYDQLYHNYEQLSSKLRFIKKEVLLQDDRLKTMSQYHPSSSHDVAKIIRKEKDEIRRLEMEIANLQE",> 5 fold,–
"Dam1-GFP CP complex, phosphorylated by Ipl1 (Dam1p S20A, Ask1p S200A, Spc34p T199A; Dam1p C-terminal sites phosphorylated) (complex, yeast, phosphoserine at S257, S265 and S292 (by Ipl1 kinase, nearly stoichiometric), GFP-tagged complex, detected by its GFP; In the tracer assay 20 pM of this complex met 2 nM of the same phosphorylated mutant complex without GFP; also called Dam1 CP phos; Dam1 CP; source: recombinant Dam1 complex (E. coli BL21 Rosetta, purified); phosphorylated with GST-Ipl1, GST-Sli15 (554-698) and 10 mM ATP, 90 min, 30 °C; copies: + + + + + + + + +) chain 1: MDSASKEETLEKLDQEITVNLQKIDSNLSFCFHKITQDIIPHVATYSEICERIMDSTEWLGTMFQETGLVNLQANAAAPVGNAPVKSLVSNNVGIFPTSAEEASRQSQTDNGPNEADSAVHVNRDVHSMFNNDSIDDFHTANITSTGQILKLPDSSDEDTGSEAVPSREQTDLTGEGHGGADDEQDESTIQRQSRKRKIALLLQQQYGSSSSMVPSPIVPNKMRKQLAHEEHINNDGDNDDENSNNIESSPLKQGHHHPKGQADDNNEGPDEEESTKEVPKPGTIIHFSTNR chain 2: MMASTSNDEEKLISTTDKYFIEQRNIVLQEINETMNSILNGLNGLNISLESSIAVGREFQSVSDLWKTLYDGLESLSDEAPIDEQPTLSQSKTK chain 3: MDSIDEQIAIKRKELQSLQKITSLTDGLKIQLTELNEQIKEMGMNADSVAQLMNNWDSIINNISQASLGLLQYAEGDYEIGPWKDSKKKESEQSNETGLEAQENDKNDEDNDEDEDLVPLPETMVRIRVDGNE chain 4: MEHNLSPLQQEVLDKYKQLSLDLKALDETIKELNYSQHRQQHSQQETVSPDEILQEMRDIEVKIGLVGTLLKGSVYSLILQRKQEQESLGSNSK chain 5: MENPHEQVQANILSRIIGNVKRLNESVAILNQELVTINNRNKNLEIMGAICDNYHSSVQFNLEATNNKKPPL chain 6: MSEDKAKLGTTRSATEYRLAIGSAPTSRRSSMGESSSLMKFADQEGLTSSVGEYNENTIQQLLLPKIRELSDSIITLDSNFTRLNFIHESLADLNESLGSLLYGIMSNSWCVEFSQAPHDIQDDLIAIKQLKSLEDEKNNLVMELSNMERGIKRKKDEQGENDLAKASQNKQFNQPLFPSSQVRKYRSYDNRDKRKPSKIGNNLQVENEEDYEDDTSSEASFVLNPTNIGMSKSSQGHVTKTTRLNNNTNSKLRRKSILHTIRNSIASGADLPIENDNVVNLGDLHPNNRISLGSGAARVVNGPVTKNRNSMFSGRAERKPTESRHSVAKKTEKKINTRPPFR chain 7: MSEQSQLDDSTIDKLIPQIFNEMRSNLNNTTNKFPKSTGGGASDNISANSNSIRSFNSITTQSLLKESESLDKITAMIKNVTAALKNNLPVYVNQVHEVCKSTNSILDSWINIHSQAGYIHKLMSDQTYLKLINDRLHNENVNTNDEDGSTLHNVIALKKKEILDLRQKLENRKGEKDAAPAKPPNQGLNPRYGVQSGRRPVPSAGISNNGRVRKTHVPASKRPSGIPRVTNRWTKPTASSSRKMFR chain 8: MNANKQRQYNQLAHELRELQTNLQETTKQLDIMSKQCNENLVGQLGKVHGSWLIGSYIYYMEQMLGKTQ chain 9: MTDALEQSVLALEGTVSVLKDSVESLKCANEPSTNLASTMLQTKRVFRLVPEYDVERSKLDLIEEVEPLVRTLGDKLRKSMGRMQRELDTLQQTYELNDLRLKKNISMDDDDALNSPDMGQEYEGRDADDVVMMASSTNEELEELKKLKEKKKQLENKLEILKQK chain 10: MGESLDRCIDDINRAVDSMSTLYFKPPGIFHNAILQGASNKASIRKDITRLIKDCNHDEAYLLFKVNPEKQSVSRRDGKEGVFDYVIKRDTDMKRNRRLGRPGEKPIIHVPKEVYLNKDRLDLNNKRRRTATTSGGGLNGFIFDTDLIGSSVISNSSSGTFKALSAVFKDDPQIQRLLYALENGSVLMEEESNNQRRKAIFVEDFPTDLILKVMAEVTDLWPLTEFKQDYDQLYHNYEQLSSKLRFIKKEVLLQDDRLKTMSQYHPSSSHDVAKIIRKEKDEIRRLEMEIANLQE",–,binds
